Test results reported in patent US20070060518A1 (MANNKIND, published 2007).
Square brackets hold non-standard residues; d marks the D form. Ends that are not written are not given here. Phe(4-NO2) = N[C@@H](Cc1ccc([N+](=O)[O-])cc1)C(=O)O; Phe(4-F) = N[C@@H](Cc1ccc(F)cc1)C(=O)O; Phg = N[C@H](C(=O)O)c1ccccc1; Nle = CCCC[C@H](N)C(=O)O; Nva = CCC[C@H](N)C(=O)O; Abu = CC[C@H](N)C(=O)O

B1: SSX2 41-49 (K41(Phe-4N02)) (peptide)
peptide: [Phe(4-NO2)]ASEKIFYV
notes: also called para-nitrophenylalanine analog

The binders below were run against T1, HLA-A*0201 class I monomer on avidin-coated plates (iTopia Epitope Discovery System) (human) (assay: iTopia assays (FIG. 19)).
T1 construct: Bought kit (Beckman Coulter); also called A0201 restricted MHC Class 1 molecules; MHC monomer
Text: (§1) Avidin-coated microtiter plates containing class I monomer loaded with a so-called placeholder peptide were used to evaluate peptide binding, affinity and off-rate. […] Assay buffers, anti-MHC-FITC mAb and beta2-microglobulin and control peptides were also supplied with the kits. Binding Assay:
This assay measures the ability of individual peptides to bind HLA molecules under standardized optimal binding conditions. Monomer-coated plates were first stripped, releasing the placeholder peptide and leaving only the MHC heavy chain bound to the plate. Test peptides were then introduced under optimal folding conditions, along with the anti-MHC-FITC mAb. […] The anti-MHC-FITC mAb binds preferentially to a refolded MHC complex. Therefore, the fluorescence intensity resulting from each peptide was related to the peptide's ability to form complex with MHC molecule. Each peptide's binding was evaluated relative to the positive control peptide provided in the kit, and the results were expressed “% binding”.
ALPSIPVHPI [PSMA288-297 analog with Ala at P1]: binds.
GLPSIPVHAI [PSMA288-297 analog with Ala at PΩ-1]: binds.
GLPSIPVHSI [PSMA288-297 analog with Ser at PΩ-1]: binds.
GLPSIPVHLI [PSMA288-297 analog with Leu at PΩ-1]: binds.
GLPSIPVHTI [PSMA288-297 analog with Thr at PΩ-1]: binds.
SLPSIPVHPI [PSMA288-297 analog with Ser at P1]: binds.
XLPSIPVHPI (sarkosine (Sar, N-methylglycine) at P1) [PSMA288-297 analog with Sar at P1]: binds.
XLPSIPVHPI (aminobutyric acid (Abu) at P1, also called G288Abu) [PSMA288-297 analog with Abu at P1]: binds.

These binders were tested against T1, HLA-A*0201 class I monomer on … (assay: iTopia affinity assay (FIG. 19)).
Text: as §1
GLPSIPVHPL [PSMA288-297 analog with Leu at PΩ]: binds.
GIPSIPVHPI [PSMA288-297 analog with Ile at P2]: binds.
GQPSIPVHPI [PSMA288-297 analog with Gln at P2]: binds.
GVPSIPVHPI [PSMA288-297 analog with Val at P2]: binds.
G[Abu]PSIPVHPI [PSMA288-297 analog with Abu at P2]: binds.
G[Nva]PSIPVHPI [PSMA288-297 analog with Nva at P2]: binds.
GLPSIPVHP[Nle] [PSMA288-297 analog with Nle at PΩ]: binds.

What follows are binders tested against T1, HLA-A*0201 class I monomer on … (assay: iTopia off-rate assay (FIG. 20)).
Experimental: as §1
(§2) The plates were then incubated on the allele-specific monomer plates at 37° C. The plates were measured at multiple time points (0, 0.5, 1, 1.5, 2, 4, 6 and 8 hrs) for relative fluorescence intensity. The time required for 50% of the peptide to dissociate from the MHC monomer is defined as the T1/2 value (hrs).
XLPSIPVHPX (aminobutyric acid (Abu) at P1; norvaline (Nva) at PΩ (P10)) [PSMA288-297 analog with Abu at P1 and Nva at PΩ]: binds.
ALPSIPVHP[Nva] [PSMA288-297 analog with Ala at P1 and Nva at PΩ]: binds.
GVPSIPVHP[Nva] [PSMA288-297 analog with Val at P2 and Nva at PΩ]: binds.
ALPSIPVHPV [PSMA288-297 analog with Ala at P1 and Val at PΩ]: binds.
[Abu]LPSIPVHPV [PSMA288-297 analog with Abu at P1 and Val at PΩ]: binds.
GXPSIPVHPV (norleucine (Nle) at P2) [PSMA288-297 analog with Nle at P2 and Val at PΩ]: binds.
G[Nva]PSIPVHPV [PSMA288-297 analog with Nva at P2 and Val at PΩ]: binds.

Each binder was assayed against T1, HLA-A*0201 class I monomer on … (assay: iTopia off-rate assay (FIG. 21)).
Experimental: as §1, §2
AVPSIPVHP[Nva] [PSMA288-297 analog with Ala at P1, Val at P2 and Nva at PΩ]: binds.
ALWSIPVHP[Nva] [PSMA288-297 analog with Ala at P1, Trp at P3 and Nva at PΩ]: binds.
AVPSIPVHPV [PSMA288-297 analog with Ala at P1, Val at P2 and Val at PΩ]: binds.
ALWSIPVHPV [PSMA288-297 analog with Ala at P1, Trp at P3 and Val at PΩ]: binds.
A[Nva]WSIPVHPI [PSMA288-297 analog with Ala at P1, Nva at P2 and Trp at P3]: binds.
A[Nle]WSIPVHPI [PSMA288-297 analog with Ala at P1, Nle at P2 and Trp at P3]: binds.
A[Nva]PSIPVHPV [PSMA288-297 analog with Ala at P1, Nva at P2 and Val at PΩ]: binds.

The binders below were run against T2, HLA-A*0201 on T2 cells (human) (assay: T2 cell binding assay, flow cytometry).
T2 construct: whole, on cells; also called HLA-A2
YASEKIFYV [SSX2 41-49 (K41Y)] was tested, and the EC50 was 8.74 µM and the “Relative affinity (1/RA)” value was 1.7.
FASEKIFYV [SSX2 41-49 (K41F)] was tested, and the EC50 was 9.55 µM and the “Relative affinity (1/RA)” value was 1.5.
In the case of B1, the EC50 is reported as 12.8 µM and the “Relative affinity (1/RA)” value is reported as 1.1.
In the case of XASEKIFYV (β-(3-benzothienyl)-alanine at position 41 (P1)) [SSX2 41-49 (K41(b-(3-benzothienyl)Ala))], the EC50 is reported as 24.1 µM and the “Relative affinity (1/RA)” value is reported as 0.6.

Molecular target: T2, HLA-A*0201 on T2 cells
Assay: T2 cell binding assay, flow cytometry
Remark: another data set of the same source
For FVSEKIFYV [SSX2 41-49 (K41F, A42V)], the EC50 was 4.67 µM and the “Relative affinity (1/RA)” value was 3.1.
In the case of WLSEKIFYV [SSX2 41-49 (K41W, A42L)], the EC50 is reported as 4.47 µM and the “Relative affinity (1/RA)” value is reported as 3.3.
In the case of WVSEKIFYV [SSX2 41-49 (K41W, A42V)], the EC50 is reported as 4.82 µM and the “Relative affinity (1/RA)” value is reported as 3.
WMSEKIFYV [SSX2 41-49 (K41W, A42M)] was tested, and the EC50 was 5.13 µM and the “Relative affinity (1/RA)” value was 2.9.
YLSEKIFYV [SSX2 41-49 (K41Y, A42L)] was tested, and the EC50 was 11.8 µM and the “Relative affinity (1/RA)” value was 1.2.
YMSEKIFYV [SSX2 41-49 (K41Y, A42M)] was tested, and the EC50 was 25 µM and the “Relative affinity (1/RA)” value was 0.6.
For FISEKIFYV [SSX2 41-49 (K41F, A42I)], the EC50 was 5.37 µM and the “Relative affinity (1/RA)” value was 2.7.

Molecular target: T2, HLA-A*0201 on T2 cells
Assay: T2 cell binding assay, flow cytometry
Remark: another data set of the same source
With FVSEKIF[Phg]V (also called FVSEKIF(Phg)V) [SSX2 41-49 (K41F, A42V, Y48Phg)] the EC50 was 5.85 µM and the “Relative affinity (1/RA)” value was 2.5.
In the case of FVSEKIFXV (4-fluorophenylalanine (Phe(4-F)) at position 48 (P8), also called FVSEKIF(Phe-4F)V) [SSX2 41-49 (K41F, A42V, Y48(Phe-4F))], the EC50 is reported as 10.6 µM and the “Relative affinity (1/RA)” value is reported as 1.4.
FVSEKLFSA [SSX2 41-49 (K41F, A42V, I46L, Y48S, V49A)] was tested, and the EC50 was 6.2 µM and the “Relative affinity (1/RA)” value was 2.4.
For FVSQKIFYV [SSX2 41-49 (K41F, A42V, E44Q)], the EC50 was 40.8 µM and the “Relative affinity (1/RA)” value was 0.4.
In the case of FVSEKIFFV [SSX2 41-49 (K41F, A42V, Y48F)], the EC50 is reported as 8.8 µM and the “Relative affinity (1/RA)” value is reported as 1.7.
With FVSEKLFTV [SSX2 41-49 (K41F, A42V, I46L, Y48T)] the EC50 was 5.67 µM and the “Relative affinity (1/RA)” value was 2.6.
FVSEKIFTV [SSX2 41-49 (K41F, A42V, Y48T)] was tested, and the EC50 was 3.9 µM and the “Relative affinity (1/RA)” value was 3.8.
FVSEKIFSV [SSX2 41-49 (K41F, A42V, Y48S)] was tested, and the EC50 was 3.8 µM and the “Relative affinity (1/RA)” value was 3.9.
With FVSDKIFYV [SSX2 41-49 (K41F, A42V, E44D)] the EC50 was 13.2 µM and the “Relative affinity (1/RA)” value was 1.1.
With FVSEKLFYV [SSX2 41-49 (K41F, A42V, I46L)] the EC50 was 7.8 µM and the “Relative affinity (1/RA)” value was 1.9.
FVS[Nva]KIFYV (also called FVS(Nva)KIFYV) [SSX2 41-49 (K41F, A42V, E44Nva)] was tested, and the EC50 was 3.8 µM and the “Relative affinity (1/RA)” value was 3.9.
Binder FVSEK[Nle]FYV (also called FVSEK(Nle)FYV) [SSX2 41-49 (K41F, A42V, I46Nle)] has an EC50 of 12.8 µM.
With FVSEK[Nva]FYV (also called FVSEK(Nva)FYV) [SSX2 41-49 (K41F, A42V, I46Nva)] the EC50 was 6.21 µM and the “Relative affinity (1/RA)” value was 2.4.
FVS[Nle]KIFYV (also called FVS(Nle)KIFYV) [SSX2 41-49 (K41F, A42V, E44Nle)] was tested, and the EC50 was 13 µM and the “Relative affinity (1/RA)” value was 1.1.

The binders below were run against T2, HLA-A*0201 on T2 cells (assay: T2 cell stability assay, flow cytometry).
In the case of [Phe(4-F)]ASEKIFYV [SSX2 41-49 (K41(Phe-4F))], the “Stability (T1/2)” value is reported as > 24 h.
In the case of YASEKIFYV [SSX2 41-49 (K41Y)], the “Stability (T1/2)” value is reported as > 24 h.
For FASEKIFYV [SSX2 41-49 (K41F)], the “Stability (T1/2)” value was > 24 h.

Molecular target: T2, HLA-A*0201 on T2 cells
Assay: T2 cell stability assay, flow cytometry
Remark: another data set of the same source
For FVSEKIFYV [SSX2 41-49 (K41F, A42V)], the “Stability (T1/2)” value was 24 h.
WLSEKIFYV [SSX2 41-49 (K41W, A42L)] was tested, and the “Stability (T1/2)” value was > 24 h.
WVSEKIFYV [SSX2 41-49 (K41W, A42V)] was tested, and the “Stability (T1/2)” value was > 24 h.
In the case of WMSEKIFYV [SSX2 41-49 (K41W, A42M)], the “Stability (T1/2)” value is reported as > 24 h.
YVSEKIFYV [SSX2 41-49 (K41Y, A42V)] was tested, and the “Stability (T1/2)” value was > 24 h.
With YLSEKIFYV [SSX2 41-49 (K41Y, A42L)] the “Stability (T1/2)” value was > 24 h.
For YMSEKIFYV [SSX2 41-49 (K41Y, A42M)], the “Stability (T1/2)” value was > 24 h.
FISEKIFYV [SSX2 41-49 (K41F, A42I)] was tested, and the “Stability (T1/2)” value was > 24 h.

Molecular target: T2, HLA-A*0201 on T2 cells
Assay: T2 cell stability assay, flow cytometry
Remark: another data set of the same source
With FVSEKIF[Phg]V (also called FVSEKIF(Phg)V) [SSX2 41-49 (K41F, A42V, Y48Phg)] the “Stability (T1/2)” value was > 24 h.
With FVSEKIFXV (4-fluorophenylalanine (Phe(4-F)) at position 48 (P8), also called FVSEKIF(Phe-4F)V) [SSX2 41-49 (K41F, A42V, Y48(Phe-4F))] the “Stability (T1/2)” value was 24 h.
In the case of FVSEKIFFV [SSX2 41-49 (K41F, A42V, Y48F)], the “Stability (T1/2)” value is reported as 20 h.
For FVSEKLFTA [SSX2 41-49 (K41F, A42V, I46L, Y48T, V49A)], the “Stability (T1/2)” value was 12 h.
FVSEKVFYV [SSX2 41-49 (K41F, A42V, I46V)] was tested, and the “Stability (T1/2)” value was 24 h.
FVSEKLFTV [SSX2 41-49 (K41F, A42V, I46L, Y48T)] was tested, and the “Stability (T1/2)” value was 24 h.
With FVSEKIFTV [SSX2 41-49 (K41F, A42V, Y48T)] the “Stability (T1/2)” value was 24 h.
For FVSEKIFSV [SSX2 41-49 (K41F, A42V, Y48S)], the “Stability (T1/2)” value was 20 h.
For FVSEKLFYV [SSX2 41-49 (K41F, A42V, I46L)], the “Stability (T1/2)” value was 24 h.
With FVS[Nva]KIFYV (also called FVS(Nva)KIFYV) [SSX2 41-49 (K41F, A42V, E44Nva)] the “Stability (T1/2)” value was > 24 h.
With FVSEK[Nva]FYV (also called FVSEK(Nva)FYV) [SSX2 41-49 (K41F, A42V, I46Nva)] the “Stability (T1/2)” value was > 24 h.
